In the supplement of paper PMC11780869:

System: Bacillus subtilis
Assay: cleaved RNA product abundance (RNA/gDNA barcode ratio) relative to median wild-type variant (ratio to wild type); higher = more accumulation of the downstream cleavage product
Procedure, shortened: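 In LB at 37°C, B. subtilis cultures went from OD600 0.0003 to 0.3. Their chromosomes held barcoded reporter mRNAs, truncated aprE or tetM, with RNase Y cleavage-site windows mutagenized via oligos at a 9% error rate. Cleaved RNA, chosen by gel, was reverse transcribed and barcode-sequenced alongside genomic DNA barcodes with UMI collapsing, giving a per-construct RNA:gDNA ratio scaled to the median construct with the unmutated site. This scaled ratio is termed cleaved product abundance.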

[1] = experiment (reporter, strain, medium): exp 4a: truncated aprE reporter, strain BJT201 with 2% xylose (RNase J1 expressed), cleavage site: cggR-gapA (positions -7 to +36 mutated)
[2] = experiment (reporter, strain, medium): exp 2b: truncated aprE reporter, strain BJT200, cleavage site: cggR-gapA (positions -7 to +36 mutated)
[3] = experiment (reporter, strain, medium): exp 8a: truncated aprE reporter, strain BJT201 with 2% xylose (RNase J1 expressed), cleavage site: glnRA (positions -5 to +31 mutated)
[4] = experiment (reporter, strain, medium): exp 6: tetM reporter, strain 168, cleavage site: cggR-gapA (positions -7 to +36 mutated)

Sequence	cleaved RNA product abundance [1]	cleaved RNA product abundance [2]	cleaved RNA product abundance [3]	also measured
ACAGACGAAGGAGCCGCAAAGAAGTTATTAAGGGAGGAATAAACCCTCAATATAAATATCTCTCACTTATTTAAA	0.382	–	–	–
ACAGACGAAGGAGCCGCAACGAAGTTATTAAGGGATGAATAATCCCTCAAAATAAATATCTCTCACTTATTTAAA	0.357	–	–	–
ACAGACGAAGGAGCCGCAAAGAATTAATTAAGGGATGAATAATCCCTCAATATAAATATCTCTCACTTATTTAAA	0.36	0.257	–	–
ACAGACGAAGGAGCCGCAAAGAAGTTATTAAGGGAAGAATAATCGCTCAATATAAATATCTCTCACTTATTTAAA	0.114	–	–	–
CGACATGTCCCGCTTCTTTCATTAATCCGTAAGCAACTGTTTTGCTATATACCTTTACCTTTTAAGAGGAGGAAT	–	–	0.207	–
ACAGACGAAGGAGCCGCAAACAAATTATTAAGGGATGAATAATCCCTCAATATAAATATCTCTCACTTATTTAAA	0.696	0.711	–	–
ACAGACGAAGGAGCCGCAATGAAGTTACTAAGGGATGAATAATCCCTCAATATAAATATCTCTCACTTATTTAAA	0.249	–	–	–
ACAGACGAAGGAGCCGCAAAGAAGTTATTAAGGGATGACCAATCCCTCAATATAAATATCTCTCACTTATTTAAA	0.749	–	–	–
ACAGACGAAGGAGCCGCAAAGAAGTTATTAAGGGATGAAAAATCCCTCAGTATAAATATCTCTCACTTATTTAAA	0.224	–	–	–
CGACATGTCCCGCTTCTTTCATTAATCCGTTAGCAACTGTTTTACAATATACATTTACCTTTTAAGAGGAGGAAT	–	–	0.534	–
ACAGACGAAGGAGCCGCAAACAAGTTATTAAGTGATGAATAATCCCTCAATATAAATATCTCTCACTTATTTAAA	0.0967	0.0954	–	–
CGACATGTCCCGCTTCTTTCATTAATCCGTTAGCAATTGTTTTGTTATATACATTTACCTTTTAAGAGGAGGAAT	–	–	0.425	–
ACAGACGAAGGAGCCGCAAAGATGTTATTAAGGGATCAATAATCCCTCAATATAAATATCTCTCACTTATTTAAA	1.08	0.708	–	–
CGACATGTCCCGCTTCTTTCATTATTCCGTGAGCAACTGTTTTGCTATATACATTTACCTTTTAAGAGGAGGAAT	–	–	0.62	–
CGACATGTCCCGCTTCTTTCATTAATCCGTTTGCAACTGTTTTGCTATATACATTTAACTTTTAAGAGGAGGAAT	–	–	0.827	–
CGACATGTCCCGCTTCTTTCATTATTCCGATAGCAACTATTTTGCTATATACATTTACCTTTTAAGAGGAGGAAT	–	–	1.85	–
ACAGACGAAGGAGCCGCAAAGAACTTATTAAAGGATGAATAATCCCTCAATATAAATATCTCTCACTTATTTAAA	–	0.166	–	–
CGACATGTCCCGCTTCTTTCATTAATCCGTTAGCAACTGTTTGACTATATACATTTACCTTTTAAGAGGAGGAAT	–	–	0.605	–
ACAGACGAAGGAGCCGCAAAGAAGTTATTAAGGGATGAATAAACCCTCCATATAAATATCTCTCACTTATTTAAA	0.162	–	–	–
ACAGACGAAGGAGCCGCAAAGAAGTTATTATAGGATGAATAATCCCTCAATATAAATATCTCTCACTTATTTAAA	0.203	0.149	–	–

Sequence	cleaved RNA product abundance [1]	cleaved RNA product abundance [2]	cleaved RNA product abundance [3]	also measured
CGACATGTCCCGCTTCTTTCATTAATCCGTTAGCAAATGTTTTGTTATATACATTTACCTTTTAAGAGGAGGAAT	–	–	0.554	–
ACAGACGAAGGAGCCGCAAAGAAGTTATTAAGTGATGAATAATCCCTCAACATAAATATCTCTCACTTATTTAAA	0.0935	–	–	–
ACAGACGAAGGAGCCGCAAAGAAGTTATTAAGGGGTAAATAATCCCTCAATATAAATATCTCTCACTTATTTAAA	0.708	–	–	–
ACAGACGAAGGAGCCGCAAAGAAGTTATTAAGGCATGAATAATCCCTCAATGTAAATATCTCTCACTTATTTAAA	0.0571	–	–	–
CGACATGTCCCGCTTCTTTCATTAATCTGTTAGCAACTGTTTTGCTATATAGATTTACCTTTTAAGAGGAGGAAT	–	–	0.587	–
ACAGACGAAGGAGCCGCAAAGAATTTATTAAGGGATGAATAATCCCTCCATATAAATATCTCTCACTTATTTAAA	0.424	–	–	–
ACAGACGAAGGAGCCGCAAAGAAGTTATTGAGGGATGAATAATCCCTCAATATAAATATCTCTCACTTATTTAAA	0.0555	0.116	–	cleaved RNA product abundance [4]: 0.247
ACAGACGAAGGAGCCGCAAATTAGTTATTAAGGGATGAAAAATCCCTCAATATAAATATCTCTCACTTATTTAAA	0.655	–	–	–
CGACATGTCCCGCTTCTTTCATTAATCCGTTAGCAAGTGTTTTGCTATATACATTTACCTTTTAAGAGGAGGAAT	–	–	0.995	–
ACAGACGAAGGAGCCGCAAAGAAGTTATTAAGGGATGAATTATCTCTCAATATAAATATCTCTCACTTATTTAAA	0.37	0.318	–	–
ACAGACGAAGGAGCCGCAAAGAAGTTACTAAGGGATGAATACTCCCTCAATATAAATATCTCTCACTTATTTAAA	–	0.107	–	–
ACAGACGAAGGAGCCGCAAAGAAGTTATTAAGGGATGAATAATCCCGCAATATAGATATCTCTCACTTATTTAAA	0.279	–	–	–
CGACATGTCCCGCTTCTTTCATTAATCCGTTAGCAACTTATTTGCTATATACATTTACCTTTTAAGAGGAGGAAT	–	–	1.85	–
ACAGACGAAGGAGCCGCAAAGCAGTTATTAAGGGATGAATAATCCCTCAATATAAATATCTCTCACTTATTTAAA	0.958	0.905	–	cleaved RNA product abundance [4]: 0.944
ACAGACGAAGGAGCCGCAAAGAAGTTATTAAGGGATCAATAATCCTTCAATATAAATATCTCTCACTTATTTAAA	0.353	–	–	–
CGACATGTCCCGCTTCTTTCATTAATTCGTTAGCAACTGTTTTGCTATATACATTTATCTTTTAAGAGGAGGAAT	–	–	1.4	–
ACAGACGAAGGAGCCGCAATGAAATTATTAAGGGATGAATAATCCCTCAATATAAATATCTCTCACTTATTTAAA	0.875	0.716	–	–
ACAGACGAAGGAGCCGCAAATAAGTTATTAAGAGATGAATAATCCCTCAATATAAATATCTCTCACTTATTTAAA	0.13	0.12	–	–
ACAGACGAAGGAGCCGCAACGAAGTTATTAAGGGATGAACAATCCCTCAATATAAATATCTCTCACTTATTTAAA	0.631	–	–	–
ACAGACGAAGGAGCCGCAAAGAAGTTATAAAGGGATGAATAATCCCTCAATATAAATATCTCTCACTTATTTAAA	0.454	0.363	–	cleaved RNA product abundance [4]: 0.4

Sequence	cleaved RNA product abundance [1]	cleaved RNA product abundance [2]	cleaved RNA product abundance [3]	also measured
CGACATGTCCCGCTTCTTTCATTAATCCGTTAGCAACTGTTTTGCTTTATACATTTACCCTTTAAGAGGAGGAAT	–	–	0.206	–
ACAGACGAAGGAGCCGCAAAGAAGTTATTAAGGGATGAAAAATCCCTCAAAATAAATATCTCTCACTTATTTAAA	0.333	–	–	–
ACAGACGAAGGAGCCGCAAAAAACTTATTAAGGGATGATTAATCCCTCAATATAAATATCTCTCACTTATTTAAA	–	0.325	–	–
ACAGACGAAGGAGCCGCAAAGAAGTTATTAAGGCATGAATAATCCCTCAATATATATATCTCTCACTTATTTAAA	0.11	0.106	–	–
ACAGACGAAGGAGCCGCAAAGAAGTTATTAAGGAATAAATAATCCCTCAATACAAATATCTCTCACTTATTTAAA	0.0573	–	–	–
ACAGACGAAGGAGCCGCAAAGAAGTTGTTAAGGGATGAATAAACCCTCAATATAAATATCTCTCACTTATTTAAA	0.2	–	–	–
ACAGACGAAGGAGCCGCAAAGAAGTTATTAACGGACGAATAATCCCTCAATATAAATATCTCTCACTTATTTAAA	0.0823	0.0519	–	–
ACAGACGAAGGAGCCGCAAAGAAGTTTTTAAGGGATGAATAATCCCTCAACATAAATATCTCTCACTTATTTAAA	0.295	–	–	–
CGACATGTCCCGCTTCTTTCATTATTCCAATAGCAACTGTTTTGCTATATACATTTACCTTTTAAGAGGAGGAAT	–	–	0.925	–
CGACATGTCCCGCTTCTTTCATTAATCCGTTAGCAACTGTTTTGCTATATACATATACGTTTTAAGAGGAGGAAT	–	–	1.29	–
ACAGACGAAGGAGCCGCAAAGAAGTTATTAAGTGATGAAAAATCCCTCAATATAAATATCTCTCACTTATTTAAA	0.0967	0.118	–	–
ACAGACGAAGGAGCCGCAAAGAACTTATTAAGGGATGAACAATCCCTCAATATAAATATCTCTCACTTATTTAAA	0.344	–	–	–
ACAGACGAAGGAGCCGCAAAGAAGTTATTAAGGGATGAATAATCCCTCATTATAAATATCTCTCACTTATTTAAA	0.383	0.263	–	cleaved RNA product abundance [4]: 0.395
ACAGACGAAGGAGCCGCAAAGAAGTCATTAAGGGATGAATAATCCCTGAATATAAATATCTCTCACTTATTTAAA	0.136	–	–	–
ACAGACGAAGGAGCCGCAAAGAAGTTATTAAGGGATGAATAATTCGTCAATATAAATATCTCTCACTTATTTAAA	–	0.0726	–	–
CGACATGTCCCGCTTCTTTCATTAATCCGTTAGCAACTGTTTGGCTATATACAATTACCTTTTAAGAGGAGGAAT	–	–	0.279	–
CGACATGTCCCGCTTCTTTCATTATTCCGTTAGCAACTGTTTTGCCATATACATTTACCTTTTAAGAGGAGGAAT	–	–	0.346	–
CGACATGTCCCGCTTCTTTCATTAAACCGTTAGCAACTGTTTTGCGATATACATTTACCTTTTAAGAGGAGGAAT	–	–	0.352	–
CGACATGTCCCGCTTCTTTCATTATTCCGTTAGCAACTGTTTTGCTATATACATTTACATTTTAAGAGGAGGAAT	–	–	1.98	–
CGACATGTCCCGCTTCTTTCATTAAACCGTTAGCAACTGTTTTTCTATATACATTTACCTTTTAAGAGGAGGAAT	–	–	0.464	–
